Laboratory results from article PMC4227783.

Target: T1, TbTRF Myb domain (Trypanosoma brucei, UniProt Q4VHG6 281-382)
T1 sequence: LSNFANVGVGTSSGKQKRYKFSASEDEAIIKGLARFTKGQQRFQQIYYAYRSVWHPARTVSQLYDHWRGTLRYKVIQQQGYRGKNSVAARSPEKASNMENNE
Assay: ITC

B1: regular 13-mer telomeric oligo (dsDNA)
DNA 1: GGTTAGGGTTAGG
DNA 2: CCTAACCCTAACC
B1: binds.
